# From patent EP0927045B1 (The Burnham Institute, dated 1998)
# Where no end group is shown, it is not given here.
# Biological target: αvβ3 integrin expressed on blood vessels forming in the tumor
# Test: cell-based or functional assay
binder,measurement,value
"CDCRGDCFC (not fully specified (bridges); cysteine pairing not given here; also: peptide displayed on filamentous phage (fuse5), up to five copies) [phage expressing the RGD-containing peptide CDCRGDCFC (SEQ ID NO: 1)]","phage concentrated in the breast tumor after iv injection (in vivo homing), RGD phage against unselected phage",80 fold
